Data: patent CN115141278A (BIO THERA SOLUTIONS LTD, dated 2022)

Target: T1, 食蟹猴VISTA-Fc (cynomolgus monkey, UniProt A0A7N9IB00 33-194)
T1 construct: Bought reagent; also called VISTA-Fc(食蟹猴，Sino biological Inc); not shown: Fc part
T1 sequence: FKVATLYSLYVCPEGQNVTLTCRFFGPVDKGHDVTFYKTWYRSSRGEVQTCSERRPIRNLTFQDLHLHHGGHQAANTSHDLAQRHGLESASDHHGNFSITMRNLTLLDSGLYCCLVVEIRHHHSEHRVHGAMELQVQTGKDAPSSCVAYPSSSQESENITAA
Test: ELISA on coated VISTA-Fc, anti-human kappa-HRP detection

EC50: 0.065 µg/mL
B1: 阳性参照抗体VSTB112 (antibody, V domains shown)
VH: QVQLVQSGAEVKKPGSSVKVSCKASGGTFSSYAISWVRQAPGQGLEWMGGIIPIFGTANYAQKFQGRVTITADESTSTAYMELSSLRSEDTAVYYCARSSYGWSYEFDYWGQGTLVTVSS
VL: DIQMTQSPSSLSASVGDRVTITCRASQSIDTRLNWYQQKPGKAPKLLIYSASSLQSGVPSRFSGSGSGTDFTLTISSLQPEDFATYYCQQSAYNPITFGQGTKVEIKR
